Assay results as given in PMC9638937, “Structural and functional determinants of the archaeal 8-oxoguanine-DNA glycosylase AGOG for DNA damage recognition and processing”.

T1: Pab-AGOG WT (Pyrococcus abyssi, UniProt Q9UZY0 1-239)
T1 sequence: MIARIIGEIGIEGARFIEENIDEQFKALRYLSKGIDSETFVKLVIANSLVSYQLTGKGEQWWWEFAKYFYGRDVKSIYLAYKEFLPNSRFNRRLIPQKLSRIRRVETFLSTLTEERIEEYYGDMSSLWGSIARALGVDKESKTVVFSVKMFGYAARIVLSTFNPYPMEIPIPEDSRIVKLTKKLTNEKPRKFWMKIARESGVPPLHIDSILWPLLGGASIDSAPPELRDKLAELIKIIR

T2: Pab-AGOG K142Q (Pyrococcus abyssi, UniProt Q9UZY0 1-239, K142Q)
T2 sequence: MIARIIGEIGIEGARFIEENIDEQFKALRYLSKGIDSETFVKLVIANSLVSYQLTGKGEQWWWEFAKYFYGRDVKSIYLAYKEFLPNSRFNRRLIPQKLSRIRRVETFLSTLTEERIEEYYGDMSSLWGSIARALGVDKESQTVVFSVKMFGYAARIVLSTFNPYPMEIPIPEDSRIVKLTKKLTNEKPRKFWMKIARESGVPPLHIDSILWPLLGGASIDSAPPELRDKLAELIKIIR


Assays:
[1] = biological target: T1, Pab-AGOG WT; assay: X-ray structure; NaBH4-trapped covalent at K142; EMSA: 0.1 nM 32P-DNA, 20 mM HEPES/NaOH pH 7.6, 100 mM NaCl, 10% glycerol, 0.1% BSA, 30 min at 4 C; 10% native PAGE at 4 C; conditions: protein: recombinant; tags: N-terminal 6xHis (pET28a), removed by trypsin at thrombin site
[2] = biological target: T2, Pab-AGOG K142Q; assay: X-ray structure; non-covalent, 1.25 A; EMSA: 0.1 nM 32P-DNA, 20 mM HEPES/NaOH pH 7.6, 100 mM NaCl, 10% glycerol, 0.1% BSA, 30 min at 4 C; 10% native PAGE at 4 C; conditions: protein: recombinant; tags: N-terminal 6xHis (pET28a), removed by trypsin (as for WT)

| Binder | binding result [1] | binding result [2] |
| --- | --- | --- |
| 9-mer trapped AP strand with 9-mer A (dsDNA, ring-open AP site from GO, borohydride-trapped, opposite A) DNA 1: TTTGTTTCT DNA 2: AGAAAAAAA | binds | – |
| 9-mer trapped AP strand with 9-mer T (dsDNA, ring-open AP site from GO, borohydride-trapped, opposite T) DNA 1: TTTGTTTCT DNA 2: AGAAATAAA | binds | – |
| 9-mer GO:C duplex (dsDNA, 8-oxoguanine at position 4 (opposite C6*)) DNA 1: TTTGTTTCT DNA 2: AGAAACAAA | – | binds |
